Experimental data: PMC4978539

Legend:
Assay in all cases: proximity ligation
mCherry-Gag (HIV-1) = target: mCherry-Gag (HIV-1)
mCh-GagQ7A/Q9A (HIV-1) = target: mCh-GagQ7A/Q9A (HIV-1)
[1] = target: HIV-1 Gag with the CA mutations Q7A/Q9A, expressed from a proviral point mutant (HIV-1)
[2] = target: HIV-1 Gag, wild type, expressed from the proviral clone pNL4-3 (HIV-1)
[3] = target: HIV-1 Gag with the CA mutation G89A, expressed from a proviral point mutant (HIV-1)

Cyclophilin A, sequence (P62937 whole entry): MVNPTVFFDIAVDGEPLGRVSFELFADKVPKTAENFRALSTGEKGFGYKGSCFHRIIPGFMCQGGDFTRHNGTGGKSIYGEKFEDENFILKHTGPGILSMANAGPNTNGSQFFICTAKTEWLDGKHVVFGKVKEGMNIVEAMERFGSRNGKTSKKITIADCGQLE
Ras-GAP SH3 domain-binding protein (G3BP1), endogenous, sequence (Q13283 whole entry, the tested form may be a part): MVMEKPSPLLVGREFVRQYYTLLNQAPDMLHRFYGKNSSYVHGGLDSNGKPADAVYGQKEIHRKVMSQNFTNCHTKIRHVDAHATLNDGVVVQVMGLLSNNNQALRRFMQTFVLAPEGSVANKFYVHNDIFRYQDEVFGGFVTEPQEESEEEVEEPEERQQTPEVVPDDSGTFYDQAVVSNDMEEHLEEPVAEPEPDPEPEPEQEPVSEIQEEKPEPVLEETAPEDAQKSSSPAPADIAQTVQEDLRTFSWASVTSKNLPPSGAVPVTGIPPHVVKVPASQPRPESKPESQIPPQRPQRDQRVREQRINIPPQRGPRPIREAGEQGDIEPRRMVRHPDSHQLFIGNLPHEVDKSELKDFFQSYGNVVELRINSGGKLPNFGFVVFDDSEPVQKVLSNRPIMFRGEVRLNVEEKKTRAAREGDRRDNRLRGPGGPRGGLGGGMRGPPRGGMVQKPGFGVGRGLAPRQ

Row | Substance | PLA spots/cell (mCherry-Gag (HIV-1)) [spots/cell] | PLA spots/cell (mCh-GagQ7A/Q9A (HIV-1)) [spots/cell] | PLA spots/cell [1] [spots/cell] | PLA spots/cell [2] [spots/cell] | PLA spots/cell [3] [spots/cell]
1 | Ras-GAP SH3 domain-binding protein (G3BP1), endogenous (from UniProt Q13283 1-466) (natural protein) | 107 | 33.8 | – | – | –
2 | Cyclophilin A (from UniProt P62937 1-165) (natural protein) | – | – | 27.4 | 60.3 | 18.7
3 | eukaryotic elongation factor 2, endogenous (from UniProt P13639 1-858) (natural protein) | – | – | 5.1 | 11.6 | 3.44
